Experimental data from doi:10.1101/2020.05.02.074187 (bioRxiv, 2020).
Where two headings read alike, the source gives them in different places.

Assays:
Experiment in all cases: single-molecule AFM dynamic force spectroscopy
[1] = target: T1, E-cadherin endogenously expressed on the apical surface of MDCK cells (canine (endogenous in MDCK), UniProt F1PAA9 157-885)
T1 sequence (looked up): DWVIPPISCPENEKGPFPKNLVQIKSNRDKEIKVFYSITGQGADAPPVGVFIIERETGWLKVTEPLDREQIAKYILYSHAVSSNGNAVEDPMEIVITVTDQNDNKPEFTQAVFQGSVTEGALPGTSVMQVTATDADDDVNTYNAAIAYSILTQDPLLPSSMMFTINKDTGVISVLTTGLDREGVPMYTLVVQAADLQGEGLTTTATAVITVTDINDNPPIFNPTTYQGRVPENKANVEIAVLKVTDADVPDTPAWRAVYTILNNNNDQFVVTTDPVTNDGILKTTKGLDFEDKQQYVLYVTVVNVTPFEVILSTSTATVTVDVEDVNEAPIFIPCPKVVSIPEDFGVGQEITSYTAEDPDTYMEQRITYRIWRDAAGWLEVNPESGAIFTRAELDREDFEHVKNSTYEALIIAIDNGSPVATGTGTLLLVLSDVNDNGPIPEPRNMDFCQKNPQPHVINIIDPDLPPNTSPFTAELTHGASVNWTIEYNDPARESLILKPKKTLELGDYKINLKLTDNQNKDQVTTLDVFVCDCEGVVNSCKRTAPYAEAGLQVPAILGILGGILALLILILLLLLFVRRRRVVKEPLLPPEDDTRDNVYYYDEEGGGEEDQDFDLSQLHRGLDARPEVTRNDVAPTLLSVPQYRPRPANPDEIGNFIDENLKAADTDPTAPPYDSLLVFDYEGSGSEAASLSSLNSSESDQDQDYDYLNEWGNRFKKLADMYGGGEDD

[2] = target: T1, E-cadherin endogenously expressed on …; remark: listed apart in the source
[3] = target: T1, E-cadherin endogenously expressed on …; remark: listed apart in the source

- koff [1]: 2.37 s⁻¹
- koff [2]: 1.77 s⁻¹
- koff [3]: 1.73 s⁻¹
B1: recombinant E-cadherin extracellular region, biotinylated monomer with C-terminal Avi tag (domain or fragment, UniProt F1PAA9 157-712, looked up)
chain: DWVIPPISCPENEKGPFPKNLVQIKSNRDKEIKVFYSITGQGADAPPVGVFIIERETGWLKVTEPLDREQIAKYILYSHAVSSNGNAVEDPMEIVITVTDQNDNKPEFTQAVFQGSVTEGALPGTSVMQVTATDADDDVNTYNAAIAYSILTQDPLLPSSMMFTINKDTGVISVLTTGLDREGVPMYTLVVQAADLQGEGLTTTATAVITVTDINDNPPIFNPTTYQGRVPENKANVEIAVLKVTDADVPDTPAWRAVYTILNNNNDQFVVTTDPVTNDGILKTTKGLDFEDKQQYVLYVTVVNVTPFEVILSTSTATVTVDVEDVNEAPIFIPCPKVVSIPEDFGVGQEITSYTAEDPDTYMEQRITYRIWRDAAGWLEVNPESGAIFTRAELDREDFEHVKNSTYEALIIAIDNGSPVATGTGTLLLVLSDVNDNGPIPEPRNMDFCQKNPQPHVINIIDPDLPPNTSPFTAELTHGASVNWTIEYNDPARESLILKPKKTLELGDYKINLKLTDNQNKDQVTTLDVFVCDCEGVVNSCKRTAPYAEAGLQVPA
modifications: biotin (biotinylated with BirA enzyme)
